Measurements: patent US10011641B2
Non-standard residues stand in square brackets, D forms with d. No end group written: not given here. Z06677 = not defined here

Legend:
[1] = biological target: PEP06548 (Artificial sequence); experiment: affinity purification on anti-ABD agarose with about 2.3 mg ligand per ml resin, absorbance measurement
[2] = biological target: PEP17081 (Artificial sequence); experiment: affinity purification on anti-ABD agarose, spectrophotometric analysis of the eluted pool

purified protein obtained per ml of resin (mg per ml of resin) [1]: 3.7
sample molecules per ligand ([1]; scale: PEP06548 molecule per): 1
binding capacity (mg PEP17081 per ml resin) [2]: 13
B1: (Z06677)2-Cys (designed binder)
chain: GSSLQ[Z06677][Z06677]VDC
modifications: reading uncertain; also: printed as GSSLQ-[Z06677][Z06677]-VDC
